{"source": "the FLAb antibody collection", "data": [{"test": "patients with anti-drug antibodies; higher = more immunogenic", "units": {"patients with anti-drug antibodies": "%"}, "values": [{"protein": "unnamed (protein) chain 1: QVQLQQSGAEVKKPGASVKVSCEASGYTFPSYVLHWVKQAPGQGLEWIGYINPYNDGTQYNEKFKGKATLTRDTSINTAYMELSRLRSDDTAVYYCARGFGGSYGFAYWGQGTLVTVSS chain 2: DIQLTQSPSSLSASVGDRVTMTCSASSSVSSSYLYWYQQKPGKAPKLWIYSTSNLASGVPARFSGSGSGTDFTLTISSLQPEDSASYFCHQWNRYPYTFGGGTRLEIK", "patients with anti-drug antibodies": 10}, {"protein": "unnamed (protein) chain 1: QVQLVQPGAEVVKPGASVKLSCKTSGYTFTSNWMHWVKQAPGQGLEWIGEIDPSDSYTNYNQNFQGKAKLTVDKSTSTAYMEVSSLRSDDTAVYYCARGSNPYYYAMDYWGQGTSVTVSS chain 2: EIVLTQSPAIMSASPGERVTMTCSASSGVNYMHWYQQKPGTSPRRWIYDTSKLASGVPARFSGSGSGTDYSLTISSMEPEDAATYYCHQRGSYTFGGGTKLEIK", "patients with anti-drug antibodies": 33}, {"protein": "unnamed (protein) chain 1: QVQLQESGPGLVKPSQTLSLTCTVSGGSISSGDYFWSWIRQLPGKGLEWIGHIHNSGTTYYNPSLKSRVTISVDTSKKQFSLRLSSVTAADTAVYYCARDRGGDYYYGMDVWGQGTTVTVSS chain 2: EIVLTQSPGTLSLSPGERATLSCRASQGISRSYLAWYQQKPGQAPSLLIYGASSRATGIPDRFSGSGSGTDFTLTISRLEPEDFAVYYCQQFGSSPWTFGQGTKVEIK", "patients with anti-drug antibodies": 0}, {"protein": "unnamed (protein) chain 1: EVQLVESGGGLVKPGGSLRLSCAASGFTFSNYAMSWVRQTPEKRLEWVATISRSGSYSYFPDSVQGRFTISRDNAKNSLYLQMNSLRAEDTAVYYCARLGGYDEGDAMDSWGQGTTVTVSS chain 2: DIVMTQTPLSLSVTPGQPASISCKSSQSLLESDGKTYLNWYLQKPGQSPQLLIYLVSILDSGVPDRFSGSGSGTDFTLKISRVEAEDVGVYYCLQATHFPQTFGGGTKVEIK", "patients with anti-drug antibodies": 17}, {"protein": "unnamed (protein) chain 1: EVQLVESGGGLVQPGGSLRLSCAASGFTFSSYGMSWVRQAPGKGLELVASINSNGGSTYYPDSVKGRFTISRDNAKNSLYLQMNSLRAEDTAVYYCASGDYWGQGTTVTVSS chain 2: DIVMTQSPLSLPVTPGEPASISCRSSQSLVYSNGDTYLHWYLQKPGQSPQLLIYKVSNRFSGVPDRFSGSGSGTDFTLKISRVEAEDVGVYYCSQSTHVPWTFGQGTKVEIK", "patients with anti-drug antibodies": 0}, {"protein": "unnamed (protein) chain 1: QVQLVQSGAEVKKPGASVKVSCKVSGYTFTSYDINWVRQAPGKGLEWMGWIYPGDGSIKYNEKFKGRVTMTVDKSTDTAYMELSSLRSEDTAVYYCARRGEYGNYEGAMDYWGQGTLVTVSS chain 2: DIQMTQSPSSLSASVGDRVTITCKASQSVDYDGHSYMNWYQQKPGKAPKLLIYAASNLESGVPSRFSGSGSGTDFTLTISSLQPEDFATYYCQQSDENPLTFGGGTKVEIK", "patients with anti-drug antibodies": 0.9}, {"protein": "unnamed (protein) chain 1: EVQLVESGGGLVQPGGSLRLSCAASGYSFTGYYIHWVRQAPGKGLEWVARVIPNAGGTSYNQKFKGRFTLSVDNSKNTAYLQMNSLRAEDTAVYYCAREGIYWWGQGTLVTVSS chain 2: DIQMTQSPSSLSASVGDRVTITCRSSQSLVHSNGNTFLHWYQQKPGKAPKLLIYTVSNRFSGVPSRFSGSGSGTDFTLTISSLQPEDFATYFCSQTTHVPWTFGQGTKVEIK", "patients with anti-drug antibodies": 0}, {"protein": "unnamed (protein) chain 1: QVQLVQSGAEVKKPGSSVKVSCKASGYTFTSYRMHWVRQAPGQGLEWIGYINPSTGYTEYNQKFKDKATITADESTNTAYMELSSLRSEDTAVYYCARGGGVFDYWGQGTLVTVSS chain 2: DIQMTQSPSTLSASVGDRVTITCSASSSISYMHWYQQKPGKAPKLLIYTTSNLASGVPARFSGSGSGTEFTLTISSLQPDDFATYYCHQRSTYPLTFGQGTKVEVK", "patients with anti-drug antibodies": 19}, {"protein": "unnamed (protein) chain 1: QVQLQESGPGLVKPSETLSLTCTVSGYSITGGYLWNWIRQPPGKGLEWIGYISYDGTNNYKPSLKDRVTISRDTSKNQFSLKLSSVTAADTAVYYCARYGRVFFDYWGQGTLVTVSS chain 2: DIVMTQSPLSLPVTPGEPASISCRSSQSIVHSNGNTYLQWYLQKPGQSPQLLIYKVSNRLYGVPDRFSGSGSGTDFTLKISRVEAEDVGVYYCFQGSHVPWTFGQGTKVEIK", "patients with anti-drug antibodies": 0}, {"protein": "unnamed (protein) chain 1: QVQLVESGGGVVQPGRSLRLSCAASGFSFSNYGMHWVRQAPGKGLEWVALIWYDGSNEDYTDSVKGRFTISRDNSKNTLYLQMNSLRAEDTAVYYCARWGMVRGVIDVFDIWGQGTVVTVSS chain 2: DIQMTQSPSSVSASVGDRVTITCRASQGISSWLAWYQHKPGKAPKLLIYAASSLQSGVPSRFSGSGSGTDFTLTISSLQPEDFATYYCQQANSFPWTFGQGTKVEIK", "patients with anti-drug antibodies": 0}, {"protein": "unnamed (protein) chain 1: EVQLVESGGGLVQPGGSLRLSCAVSGFSSTNYHVHWVRQAPGKGLEWMGVIWGDGDTSYNSVLKSRFTISRDTSKNTVYLQMNSLRAEDTAVYYCARQLTHYYVLAAWGQGTLVTVSS chain 2: DIQMTQSPSSLSASVGDRVTITCRASEDLYYNLAWYQRKPGKAPKLLIYDTYRLADGVPSRFSGSGSGTDYTLTISSLQPEDFASYYCQQYYKFPFTFGQGTKVEIK", "patients with anti-drug antibodies": 8.9}, {"protein": "unnamed (protein) chain 1: EVQLLESGGGLVQPGGSLRLSCAVSGFTFNSFAMSWVRQAPGKGLEWVSAISGSGGGTYYADSVKGRFTISRDNSKNTLYLQMNSLRAEDTAVYFCAKDKILWFGEPVFDYWGQGTLVTVSS chain 2: not shown", "patients with anti-drug antibodies": 0}, {"protein": "unnamed (protein) chain 1: EVQLLESGGGLVQPGGSLRLSCAASGFTFSSYAMSWVRQAPGKGLEWVSGITGSGGSTYYADSVKGRFTISRDNSKNTLYLQMNSLRAEDTAVYYCAKDPGTTVIMSWFDPWGQGTLVTVSS chain 2: EIVLTQSPGTLSLSPGERATLSCRASQSVRGRYLAWYQQKPGQAPRLLIYGASSRATGIPDRFSGSGSGTDFTLTISRLEPEDFAVFYCQQYGSSPRTFGQGTKVEIK", "patients with anti-drug antibodies": 1}, {"protein": "unnamed (protein) chain 1: QVQLQESGPGLVKPSQTLSLTCTVSGYSISSDFAWNWIRQPPGKGLEWMGYISYSGNTRYQPSLKSRITISRDTSKNQFFLKLNSVTAADTATYYCVTAGRGFPYWGQGTLVTVSS chain 2: DIQMTQSPSSMSVSVGDRVTITCHSSQDINSNIGWLQQKPGKSFKGLIYHGTNLDDGVPSRFSGSGSGTDYTLTISSLQPEDFATYYCVQYAQFPWTFGGGTKLEIK", "patients with anti-drug antibodies": 5}, {"protein": "unnamed (protein) chain 1: QVQLKESGPGLVAPSQSLSITCTVSGFSLTDYGVRWIRQPPGKGLEWLGVIWGGGSTYYNSALKSRLSISKDNSKSQVFLKMNSLQTDDTAMYYCAKEKRRGYYYAMDYWGQGTSVTVSS chain 2: ENVLTQSPAIMSASPGEKVTMTCRASSSVSSSYLHWYQQKSGASPKLWIYSTSNLASGVPARFSGSGSGTSYSLTISSVEAEDAATYYCQQYSGYPLTFGGGTKLEIK", "patients with anti-drug antibodies": 33.3}, {"protein": "unnamed (protein) chain 1: EVQLLQSGPELEKPGASVMISCKASGSSFTGYNMNWVRQNIGKSLEWIGAIDPYYGGTSYNQKFKGRATLTVDKSSSTAYMHLKSLTSEDSAVYYCVSGMEYWGQGTSVTVSS chain 2: EIVMTQSPATLSVSPGERATLSCRSSQSLVHRNGNTYLHWYLQKPGQSPKLLIHKVSNRFSGVPDRFSGSGSGTDFTLKISRVEAEDLGVYFCSQSTHVPPLTFGAGTKLELK", "patients with anti-drug antibodies": 17}, {"protein": "unnamed (protein) chain 1: EVQLVQSGAEVKKPGATVKISCKVSGYTFTDYYIHWVQQAPGKGLEWMGRVNPDHGDSYYNQKFKDKATITADKSTDTAYMELSSLRSEDTAVYFCARNYLFDHWGQGTLVTVSS chain 2: DIQMTQSPSSVSASVGDRVTITCKASQDVGTAVAWYQQKPGKAPKLLIYWASIRHTGVPSRFSGSGSGTDFTLTISSLQPEDFATYYCHQFATYTFGGGTKVEIK", "patients with anti-drug antibodies": 58.6}, {"protein": "unnamed (protein) chain 1: EVQLLESGGGLVQPGGSLRLSCAASGFTFSSYAMSWVRQAPGKGLEWVSTISSGGSYTSYPDSVKGRFTISRDNSKNTLYLQMNSLRAEDTAVYYCAKQDYAMNYWGQGTLVTVSS chain 2: DIQMTQSPSSLSASVGDRVTITCKASQDVSTAVAWYQQKPGKAPKLLIYSASYRYTGVPSRFSGSGSGTDFTLTISSLQPEDFATYYCQQHYSTPWTFGGGTKVEIK", "patients with anti-drug antibodies": 9.4}, {"protein": "unnamed (protein) chain 1: EVQLVESGGGLEQPGGSLRLSCAGSGFTFRDYAMTWVRQAPGKGLEWVSSISGSGGNTYYADSVKGRFTISRDNSKNTLYLQMNSLRAEDTAVYYCAKDRLSITIRPRYYGLDVWGQGTTVTVSS chain 2: DIVMTQSPLSLPVTPGEPASISCRSSQSLLYSIGYNYLDWYLQKSGQSPQLLIYLGSNRASGVPDRFSGSGSGTDFTLKISRVEAEDVGFYYCMQALQTPYTFGQGTKLEIK", "patients with anti-drug antibodies": 4}, {"protein": "unnamed (protein) chain 1: EVQLVESGGGLVQPGGSLRLSCAASGFTFSRYWMSWVRQAPGKGLEWVANIKQDGSEKYYVDSVKGRFTISRDNAKNSLYLQMNSLRAEDTAVYYCAREGGWFGELAFDYWGQGTLVTVSS chain 2: EIVLTQSPGTLSLSPGERATLSCRASQRVSSSYLAWYQQKPGQAPRLLIYDASSRATGIPDRFSGSGSGTDFTLTISRLEPEDFAVYYCQQYGSLPWTFGQGTKVEIK", "patients with anti-drug antibodies": 3.3}]}]}
